Reference: patent EP4361176A1 (CHUGAI SEIYAKU KABUSHIKI KAISHA, dated 2024)
Residue numbers refer to the chain shown, from its start. In names and notes the source's numbering stands.

T1: human FcγRIIa H extracellular domain (human, UniProt P12318 34-217)
T1 construct: extracellular domain; Made by the method of WO2014104165; also called hFcγR IIa H; FcyRIIaH
T1 sequence (looked up): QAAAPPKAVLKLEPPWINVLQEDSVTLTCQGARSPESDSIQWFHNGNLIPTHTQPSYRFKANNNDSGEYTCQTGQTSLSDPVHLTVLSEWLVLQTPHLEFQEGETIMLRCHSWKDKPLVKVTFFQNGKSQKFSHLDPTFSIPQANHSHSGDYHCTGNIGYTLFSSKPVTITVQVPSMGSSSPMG

T2: hFcyRIIaH on hFcyRIIaH-expressing Jurkat cells (human, UniProt P12318 34-317)
T2 sequence (looked up): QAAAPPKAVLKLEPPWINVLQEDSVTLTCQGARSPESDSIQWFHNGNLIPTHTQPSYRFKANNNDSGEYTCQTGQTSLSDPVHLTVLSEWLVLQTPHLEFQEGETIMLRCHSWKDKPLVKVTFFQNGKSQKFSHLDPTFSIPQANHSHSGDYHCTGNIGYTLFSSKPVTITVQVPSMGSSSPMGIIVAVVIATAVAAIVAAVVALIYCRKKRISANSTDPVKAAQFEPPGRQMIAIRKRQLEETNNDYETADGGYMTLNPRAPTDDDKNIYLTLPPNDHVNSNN

B1: H240-Kn462/L73-k0//H240-Hl441/L73-k0 (antibody, human IgG1, kappa)
heavy 1: QDQLVQSGAEVKKPGASVKVSCKASGFNIKDTYIQWVRQAPGQGLEWMGRIDPLRKQTKYREKFEGRVTITADTSTNTAYMELSSLRSEDTAVYYCVRSGREFDYWGQGTLVTVSSASTKGPSVFPLAPSSKSTSGGTAALGCLVKDYFPEPVTVSWNSGALTSGVHTFPAVLQSSGLYSLSSVVTVPSSSLGTQTYICNVNHKPSNTKVDKKVEPKSCDKTHTCPPCPAPEFQWGPMVFLFPPKPKDVLMISRTPEVTCVVVDVSDEEPEVKFNWYVDGVEVHNAKTKPREEQYNATYRVVSVLPVLHQDWLNGKEYKCKVSNDALPAPIEKTISKAKGQPREPQVCTLPPSRDELTKNQVSLWCLVKGFYPSDIAVEWESNGQPENNYKTTPPVLDSDGSFFLYSKLTVDKSRWQQGNVFSCSVMHEALHNHYTQKSLSLSP
heavy 2: QDQLVQSGAEVKKPGASVKVSCKASGFNIKDTYIQWVRQAPGQGLEWMGRIDPLRKQTKYREKFEGRVTITADTSTNTAYMELSSLRSEDTAVYYCVRSGREFDYWGQGTLVTVSSASTKGPSVFPLAPSSKSTSGGTAALGCLVKDYFPEPVTVSWNSGALTSGVHTFPAVLQSSGLYSLSSVVTVPSSSLGTQTYICNVNHKPSNTKVDKKVEPKSCDKTHTCPPCPAPELLAGPSVFLFPPKPKDVLMISRTPEVTCVVVDVSHEEPEVKFNWYVDGVEVHNAKTKPREEQYNATYRVVSVLPVLHQDWLNGKEYKCKVSNDALPAPIEETISKAKGQPREPQVYTLPPSRCELTKNQVSLSCAVKGFYPSDIAVEWESNGQPENNYKTTPPVLDSDGSFFLVSKLTVDKSRWQQGNVFSCSVMHEALHNHYTQKSLSLSP
light: DIQMTQSPSSLSASVGDRVTITCRASQDIHKYIAWYQQKPGQAPRLLIQYTSTLQPGVPSRFSGSGSGTDYTFTISSLQPEDIATYYCLQYEQLRTFGGGTKVEIKRTVAAPSVFIFPPSDEQLKSGTASVVCLLNNFYPREAKVQWKVDNALQSGNSQESVTEQDSKDSTYSLSSTLTLSKADYEKHKVYACEVTHQGLSSPVTKSFNRGEC
notes: also called EGL-ART5; ART5
B2: H240-Kn494/L73-k0//H240-Hl514/L73-k0 (antibody, human IgG1, kappa)
heavy 1: B1 heavy 1 with D325K, I331E
heavy 2: B1 heavy 2 with A235G, I331E
light: B1 light
notes: '1332E' read as I332E; also called EGL-ART10; ART10
B3: H240-Kn462/L73-k0//H240-Hl445/L73-k0 (antibody, human IgG1, kappa)
heavy 1: B1 heavy 1
heavy 2: B1 heavy 2 with A329K, I331D
light: B1 light
notes: also called EGL-ART6; ART6
B4: H240-Kn498/L73-k0//H240-Hl518/L73-k0 (antibody, human IgG1, kappa)
heavy 1: B1 heavy 1 with D325K, A329M
heavy 2: B1 heavy 2 with A235G, A329M
light: B1 light
notes: also called EGL-ART12; ART12

Target: T1, human FcγRIIa H extracellular domain
Test: SPR; KD for FcγRIIb divided by KD for this FcγR

A/I ratio (KD for FcγRIIb divided by KD for each FcyR) | Binder
240 | B1
17.3 | B2
307 | B3
60.3 | B4

Target: T3, human FcγRIIIa F extracellular domain (human, UniProt P08637 17-208)
T3 construct: extracellular domain; Made by the method of WO2014104165; also called hFcγR IIIa F; FcyRIIIaF
T3 sequence (P08637 17-208): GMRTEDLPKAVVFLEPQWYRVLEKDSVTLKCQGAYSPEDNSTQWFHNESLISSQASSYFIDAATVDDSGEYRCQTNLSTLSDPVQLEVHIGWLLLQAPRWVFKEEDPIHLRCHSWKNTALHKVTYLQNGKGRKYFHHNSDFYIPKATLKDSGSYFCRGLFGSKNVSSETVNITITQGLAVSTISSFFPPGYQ
Test: SPR; KD for FcγRIIb divided by KD for this FcγR

A/I ratio (KD for FcγRIIb divided by KD for each FcyR) | Binder
399 | B1
3160 | B2
976 | B3
4310 | B4

Target: hFcyRIIIaV on hFcyRIIIaV-expressing Jurkat cells (human, UniProt P08637 17-254)
Sequence (P08637 17-254): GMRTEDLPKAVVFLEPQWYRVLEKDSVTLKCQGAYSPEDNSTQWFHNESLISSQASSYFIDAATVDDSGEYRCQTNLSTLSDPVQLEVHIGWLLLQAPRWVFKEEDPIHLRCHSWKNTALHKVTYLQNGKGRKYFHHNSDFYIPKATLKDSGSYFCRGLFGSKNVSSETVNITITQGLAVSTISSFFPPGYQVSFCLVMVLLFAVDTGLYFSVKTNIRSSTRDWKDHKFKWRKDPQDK
Test: cell-based or functional assay

EC50 value (µg/mL), ADCC reporter bioassay (fold induction of luminescence), Hepa1-6/hEREG target cells | Binder
0.00167 µg/mL | B1
0.000107 µg/mL | B2
0.0015 µg/mL | B3
0.000304 µg/mL | B4

Target: T2, hFcyRIIaH on hFcyRIIaH-expressing …
Test: cell-based or functional assay

EC50 value (µg/mL), ADCP reporter bioassay (fold induction of luminescence), Hepa1-6/hEREG target cells | Binder
0.0245 µg/mL | B1
0.0419 µg/mL | B2
0.0192 µg/mL | B3
0.085 µg/mL | B4
